Test results reported in patent US20090162366A1.

Experiments:
CM12 (influenza A virus) = assay: ELISA on peptide, Ab 10 µg/ml
CM13 (influenza A virus) = assay: ELISA on peptide, Ab 10 µg/ml
CM14 (influenza A virus) = assay: ELISA on peptide, Ab 10 µg/ml
CM15 (influenza A virus) = assay: ELISA on peptide, Ab 10 µg/ml
CM16 (influenza A virus) = assay: ELISA on peptide, Ab 10 µg/ml
CM17 (influenza A virus) = assay: ELISA on peptide, Ab 10 µg/ml
[1] = target: M2 peptide (influenza A virus, A/Hong Kong/1/68 (H3N2)); assay: ELISA on peptide, Ab 10 µg/ml
NM11 (influenza A virus) = assay: ELISA on peptide, Ab 10 µg/ml
NM12 (influenza A virus) = assay: ELISA on peptide, Ab 10 µg/ml
NM13 (influenza A virus) = assay: ELISA on peptide, Ab 10 µg/ml
NM14 (influenza A virus) = assay: ELISA on peptide, Ab 10 µg/ml
NM15 (influenza A virus) = assay: ELISA on peptide, Ab 10 µg/ml
NM16 (influenza A virus) = assay: ELISA on peptide, Ab 10 µg/ml
NM17 (influenza A virus) = assay: ELISA on peptide, Ab 10 µg/ml
[2] = target: M2-BSA conjugate (influenza A virus, A/Hong Kong/1/68 (H3N2)); assay: peptide-BSA ELISA (++ EC50<10^-9M; + 10^-9M<EC50<10^-8M)
[3] = target: M2EG peptide conjugated with BSA (influenza A virus, A/New York/687/1995 (H3N2)); assay: as above; details: remark: other sources report otherwise
[4] = target: T1, M2GHTGKS peptide conjugated with BSA (influenza A virus, A/chicken/HongKong/SF1/03 (H9N2)); assay: as above; details: remark: other sources report otherwise
[5] = target: T2, M2KGENS peptide conjugated with BSA (influenza A virus, A/Turkey/VA/158512/02 (H7N2)); assay: as above; details: remark: other sources report otherwise
[6] = target: M2LTGEKS-BSA conjugate (influenza A virus, A/Hong Kong/1074/99 (H9N2)); assay: as above; details: remark: other sources report otherwise
[7] = target: T3, M2PHTGS peptide conjugated with BSA (influenza A virus, A/chicken/HongKong/YU427/03 (H9N2)); assay: as above; details: remark: other sources report otherwise
[8] = target: M2TES peptide conjugated with BSA (influenza A virus, A/Viet Nam/1203/2004 (H5N1)); assay: as above; details: remark: other sources report otherwise
[9] = target: M2TGEK-BSA conjugate (influenza A virus, A/Netherlands/33/03 (H7N7)); assay: as above; details: remark: other sources report otherwise
[10] = target: M2GHTGKS (influenza A virus, A/chicken/HongKong/SF1/03 (H9N2)); details: remark: other sources report otherwise
[11] = target: M2HTGEKS (influenza A virus, A/chicken/California/1002a/00 (H6N2)); details: remark: other sources report otherwise
[12] = target: M2KGENS (influenza A virus, A/Turkey/VA/158512/02 (H7N2)); details: remark: other sources report otherwise
[13] = target: M2KTGEKS (influenza A virus, A/Quail/Arkansas/16309-7/94 (H7N3NSA)); details: remark: other sources report otherwise
[14] = target: M2LTGS (influenza A virus, A/Hong Kong/156/97 (H5N1)); details: remark: other sources report otherwise
[15] = target: M2LTKGS (influenza A virus, A/Hong Kong/542/97 (H5N1)); details: remark: other sources report otherwise
[16] = target: M2PHTGS (influenza A virus, A/chicken/HongKong/YU427/03 (H9N2)); details: remark: other sources report otherwise
[17] = target: T1, M2GHTGKS peptide conjugated with BSA …; assay: peptide-BSA ELISA; details: remark: other sources report otherwise
[18] = target: T4, M2HTGEKS peptide conjugated with BSA (influenza A virus, A/chicken/California/1002a/00 (H6N2)); assay: peptide-BSA ELISA; details: remark: other sources report otherwise
[19] = target: T2, M2KGENS peptide conjugated with BSA …; assay: peptide-BSA ELISA; details: remark: other sources report otherwise
[20] = target: T5, M2KTGEKS peptide conjugated with BSA (influenza A virus, A/Quail/Arkansas/16309-7/94 (H7N3NSA)); assay: peptide-BSA ELISA; details: remark: other sources report otherwise
[21] = target: T6, M2LTGS peptide conjugated with BSA (influenza A virus, A/Hong Kong/156/97 (H5N1)); assay: peptide-BSA ELISA; details: remark: other sources report otherwise
[22] = target: T7, M2LTKGS peptide conjugated with BSA (influenza A virus, A/Hong Kong/542/97 (H5N1)); assay: peptide-BSA ELISA; details: remark: other sources report otherwise
[23] = target: T3, M2PHTGS peptide conjugated with BSA …; assay: peptide-BSA ELISA; details: remark: other sources report otherwise
M12 (influenza A virus) = assay: ELISA on peptide, Ab 10 µg/ml
[24] = target: T1, M2GHTGKS peptide conjugated with BSA …; assay: peptide-BSA ELISA; legend: EC50 > 10^-8M: -; details: remark: other sources report otherwise
[25] = target: T4, M2HTGEKS peptide conjugated with BSA …; assay: peptide-BSA ELISA; legend: EC50 > 10^-8M: -; details: remark: other sources report otherwise
[26] = target: T2, M2KGENS peptide conjugated with BSA …; assay: peptide-BSA ELISA; legend: EC50 > 10^-8M: -; details: remark: other sources report otherwise
[27] = target: T5, M2KTGEKS peptide conjugated with BSA …; assay: peptide-BSA ELISA; legend: EC50 > 10^-8M: -; details: remark: other sources report otherwise
[28] = target: T6, M2LTGS peptide conjugated with BSA …; assay: peptide-BSA ELISA; legend: EC50 > 10^-8M: -; details: remark: other sources report otherwise
[29] = target: T7, M2LTKGS peptide conjugated with BSA …; assay: peptide-BSA ELISA; legend: EC50 > 10^-8M: -; details: remark: other sources report otherwise
[30] = target: T3, M2PHTGS peptide conjugated with BSA …; assay: peptide-BSA ELISA; legend: EC50 > 10^-8M: -; details: remark: other sources report otherwise
[31] = target: M2DLTGS peptide conjugated with BSA (influenza A virus, A/Hong Kong/485/97 (H5N1)); assay: peptide-BSA ELISA (++ EC50<10^-9M; + 10^-9M<EC50<10^-8M); details: remark: other sources report otherwise
[32] = target: M2SG peptide conjugated with BSA (influenza A virus, A/swine/Tennessee/25/77 (H1N1)); assay: as above; details: remark: other sources report otherwise

B1: L66 (antibody, V domains shown)
VH: EVQLVESGGGVVRPGGSLRLSCAASGFTFDDYGMSWVRQAPGKGLEWVSGINWNGGSTGYADSVKGRFTISRDNAKNSLYLQMNSLRAEDTALYYCARDRVTMVRGVIMDYYGMDVWGQGTTVTVSS
VL: QTVVTQEPSLTVSPRGTVTLTCSSSTGAVTSGYYPGWFQLKPGQAPMSLIYSARKKHSWTPARFSGSLLGGKAALTLSGVQPEDEAEYYCLLYYGGAYVFGTGTKVTVLG
ELISA(OD450) (CM12 (influenza A virus)): 0.08 OD450 | ELISA(OD450) (CM13 (influenza A virus)): 0.08 OD450 | ELISA(OD450) (CM14 (influenza A virus)): 0.08 OD450 | ELISA(OD450) (CM15 (influenza A virus)): 0.09 OD450 | ELISA(OD450) (CM16 (influenza A virus)): 0.09 OD450 | ELISA(OD450) (CM17 (influenza A virus)): 0.12 OD450 | ELISA(OD450) [1]: 0.51 OD450 | ELISA(OD450) (NM11 (influenza A virus)): 0.09 OD450 | ELISA(OD450) (NM12 (influenza A virus)): 0.12 OD450 | ELISA(OD450) (NM13 (influenza A virus)): 0.13 OD450 | ELISA(OD450) (NM14 (influenza A virus)): 0.22 OD450 | ELISA(OD450) (NM15 (influenza A virus)): 0.2 OD450 | ELISA(OD450) (NM16 (influenza A virus)): 1.04 OD450 | ELISA(OD450) (NM17 (influenza A virus)): 0.99 OD450 | EC50 [2]: < 1 nM | EC50 [3]: 1 to 10 nM | EC50 [4]: < 1 nM | EC50 [5]: < 1 nM | EC50 [6]: < 1 nM | EC50 [7]: < 1 nM | EC50 [8]: < 1 nM | EC50 [9]: < 1 nM

B2: C40G1 (antibody, V domains shown)
VH: QLQLQESGPGLVKPSETLSLTCTVSGGSISSSFYYCGWIRQPPGKGLEWIGSIYYRGSTYYNPSLKSRVTISVDTSKNQFSLKLSSVTAADTAVYYCARRVTMVRGVKGDYFDYWGQGTLVTVSS
VL: DIQMTQSPSSLSASVGDRVTITCRASQGISSWLAWYQQKPEKVPKSLIYAASSLQSGVPSRFSGSGSGTDFTLTISSLQPEDFATYYCQQYNYYPLTFGGGTKVEIKR
% of O.D. on M2 (SEQ ID NO:1) [10]: < 10% | % of O.D. on M2 (SEQ ID NO:1) [11]: < 10% | % of O.D. on M2 (SEQ ID NO:1) [12]: < 10% | % of O.D. on M2 (SEQ ID NO:1) [13]: < 10% | % of O.D. on M2 (SEQ ID NO:1) [14]: < 10% | % of O.D. on M2 (SEQ ID NO:1) [15]: < 10% | % of O.D. on M2 (SEQ ID NO:1) [16]: < 10% | EC50 [17]: > 10 nM | EC50 [18]: > 10 nM | EC50 [19]: > 10 nM | EC50 [20]: > 10 nM | EC50 [21]: > 10 nM | EC50 [22]: > 10 nM | EC50 [23]: > 10 nM | ELISA(OD450) (CM12 (influenza A virus)): 0.1 OD450 | ELISA(OD450) (CM13 (influenza A virus)): 0.11 OD450 | ELISA(OD450) (CM14 (influenza A virus)): 0.1 OD450 | ELISA(OD450) (CM15 (influenza A virus)): 0.11 OD450 | ELISA(OD450) (CM16 (influenza A virus)): 0.76 OD450 | ELISA(OD450) (CM17 (influenza A virus)): 2.78 OD450 | ELISA(OD450) (M12 (influenza A virus)): 2.71 OD450 | ELISA(OD450) (NM11 (influenza A virus)): 0.31 OD450 | ELISA(OD450) (NM12 (influenza A virus)): 0.12 OD450 | ELISA(OD450) (NM13 (influenza A virus)): 2.41 OD450 | ELISA(OD450) (NM14 (influenza A virus)): 2.49 OD450 | EC50 [24]: > 10 nM | EC50 [25]: > 10 nM | EC50 [26]: > 10 nM | EC50 [27]: > 10 nM | EC50 [28]: > 10 nM | EC50 [29]: > 10 nM | EC50 [30]: > 10 nM | EC50 [31]: 1 to 10 nM | EC50 [3]: < 1 nM | EC50 [32]: < 1 nM | EC50 [8]: < 1 nM
